We go through three molecules from paper PMC9404779, “Oxidative Implications of Substituting a Conserved Cysteine Residue in Sugar Beet Phytoglobin BvPgb 1.2” (Antioxidants, 2022).

One experiment addresses T1, BvPgb1.2 (Beta vulgaris, UniProt V5QR23).
T1 construct: gene Bv9_224250_aayd.t2; recombinant from E. coli BL21(DE3), pET-DEST42
The experiment is described as follows: peroxidase assay, absorbance of ABTS radical cation at […] nm. The settings on record: 10 mM H2O2, 5 mM ABTS, 50 mM Tris-HCl pH 8.5; protein incubated at 22 or 37 °C. Type of experiment: biochemical.

Experiment [1] deals with BvPgb1.2 Cys86Ala mutant (Beta vulgaris (sugar beet)). The experiment is described as follows: SEC; analytical SEC, Superdex 75 10/300 GL, 50 mM NaP with 150 mM NaCl pH 7.0, 100 µL of 1 mg/mL protein; MW from retention volume on a calibration curve; dimer of monomers. (Size exclusion chromatography separates by hydrodynamic size, large species first.)
The target in experiment [2] is Wildtype (WT) BvPgb1.2, Class 1 phytoglobin from sugar beet (Beta vulgaris) (Beta vulgaris (sugar beet)). The experiment is described as above.

Counter-ions that a name gives are not always drawn.

T1 sequence (V5QR23 1-171): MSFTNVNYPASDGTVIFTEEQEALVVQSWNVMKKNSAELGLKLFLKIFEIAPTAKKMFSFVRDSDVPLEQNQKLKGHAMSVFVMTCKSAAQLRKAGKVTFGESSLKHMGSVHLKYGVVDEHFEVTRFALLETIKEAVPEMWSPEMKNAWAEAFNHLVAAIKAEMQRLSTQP

For the molecule `CCn1c(=NN=c2sc3cc(S(=O)(=O)O)ccc3n2CC)sc2cc(S(=O)(=O)O)ccc21` [2,2′-azino-di-(3-ethylbenzthiazolinesulfonic acid) diammonium salt], the “peroxidase assay, absorbance of ABTS radical cation at 415 nm” value on BvPgb1.2 is recorded as “The detectable radical formation of ABTS was used in this study to quantify this”.

In general, stoichiometry N refers to the number of molecules, sites or subunits per partner or assembly. With “BvPgb1.2 Cys86Ala mutant (natural protein)”, in experiment [1], the degree of dimerization is > 99% and the stoichiometry N is 2.

For the molecule “Wildtype (WT) BvPgb1.2, Class 1 phytoglobin from sugar beet (Beta vulgaris) (natural protein)”, in experiment [2], the degree of dimerization was > 99% and the stoichiometry N was 2.
